{"source": "paper PMC10998612", "key": {"[1]": {"target": "fluorescein-labeled peptide corresponding to repeat 3 (PPP1R15A^420-466), wild type (human) (UniProt O75807)", "sequence (O75807 420-466)": "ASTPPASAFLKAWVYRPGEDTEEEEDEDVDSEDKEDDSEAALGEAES", "assay": "fluorescence polarisation; 5 µL 100 nM fluorescein-labeled peptide probe mixed with 5 µL of increasing concentrations of eIF2 trimer or eIF2α-NTD; 20 mM Tris pH 7.4, 0.1 M NaCl, 1 mM TCEP, 0.01% Triton X-100; one-site binding fit; three experiments"}, "[2]": {"target": "extended PPP1R15A^325-636, wild type (bacterially expressed) (human) (UniProt O75807)", "sequence (O75807 325-636)": "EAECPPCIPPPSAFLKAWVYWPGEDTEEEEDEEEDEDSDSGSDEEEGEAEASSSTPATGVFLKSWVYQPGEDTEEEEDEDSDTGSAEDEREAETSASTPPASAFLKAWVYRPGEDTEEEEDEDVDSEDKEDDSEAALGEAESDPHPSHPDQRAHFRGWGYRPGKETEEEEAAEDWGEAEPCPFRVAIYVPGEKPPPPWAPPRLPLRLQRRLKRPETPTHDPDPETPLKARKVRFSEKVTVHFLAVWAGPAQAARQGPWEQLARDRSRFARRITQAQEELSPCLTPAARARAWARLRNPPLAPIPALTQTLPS"}, "[3]": {"target": "eIF2 trimer, endogenous (detected by its α subunit), P05198;P20042;P41091", "assay": "GFP immunoprecipitation (co-IP) and immunoblot, quantified", "conditions": "HEK293T cells; 20% (v/v) of immunoprecipitation fractions analyzed; parent: est. 0.14; read off a plot"}}}
{"substance": "eIF2 trimer (recombinant, not phosphorylated) (from UniProt P05198 1-315; P20042 1-333; P41091 1-472) (complex)", "values": [{"measurement": "K (1/2max)", "setting": "[1]", "result": 220, "unit": "nM"}]}
{"substance": "eIF2^P trimer (phosphorylated eIF2) (from UniProt P05198 1-315; P20042 1-333; P41091 1-472) (complex)", "values": [{"measurement": "dephosphorylation of the eIF2^P trimer in vitro (PhosTag SDS-PAGE, kcat/Km) by the extended PPP1R15A^325-636-PP1-G-actin holophosphatase against the core PPP1R15A^533-624-PP1-G-actin holophosphatase (fold (kcat/Km))", "setting": "[2]", "result": 10}]}
{"substance": "full-length human PPP1R15A-GFP fusion protein, wild type (from UniProt O75807) F338A; W342A; F386A; W389A; F428A; W432A; F479A; W482A", "values": [{"measurement": "other: eIF2α/PP1 signal ratio", "setting": "[3]", "result": 0.0084}]}
